Consider ten molecules from patent US20200291075A1 (TRUSTEES OF PRINCETON UNIVERSITY, published 2020).

Positions count from the first letter of the chain named. Names and notes keep the numbering of the source. Values joined by “and” are separate entries in the source; they are usually repeats but may differ in a detail not shown here. Equal values may be shown once. Read-outs that look alike come from different tables or passages of the source.

Test [1] has as its target mCherry (purified, His-tag cleaved off). Nature of the test: OCTET BLI; His-tagged nanobody on Ni-NTA biosensor, tag-free mCherry in solution.
Test [2] has the same target. Nature of the test: BLI (Octet RED96e); His-tagged nanobody on Ni-NTA sensor, tagless mCherry in solution; no illumination. For orientation: BLI is a label-free optical method that tracks binding on a fibre tip over time.
The target of test [3] is iLID-CAAX. Description: cytosol-to-membrane translocation in NIH3T3 cells.
Test [4] addresses iLID-CAAX. Description: cytosol-to-membrane redistribution in NIH3T3 cells.
In test [5] the target is T1, His6-YFP-SH2 (human, UniProt P00519 112-232).
T1 construct: domain: SH2 domain; also called 6xHis-YFP-protein fusion
T1 sequence (looked up): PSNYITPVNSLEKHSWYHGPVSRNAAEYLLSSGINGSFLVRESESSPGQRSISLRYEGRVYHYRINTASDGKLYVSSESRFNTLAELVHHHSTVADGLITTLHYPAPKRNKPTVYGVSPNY
Nature of the test: pull-down on Co2+ agarose beads with His6-YFP-SH2, crude chimera lysate, light or dark, SDS-PAGE.
Description: (§1) The His6-YFP-SH2 supernatant was then mixed with 4.5 mL of a 50% suspension of Co-charged agarose resin (Talo®), previously equilibrated in Binding buffer, and incubated at 4° C., rocking for 45 min. The suspension was sedimented by gravity and the supernatant discarded. The beads were then thoroughly washed with Binding buffer with approximately 50 times the resin or column volume. The beads (now with His6-YFP-SH2 bound) were then finally resuspended in Binding buffer to a total volume of 13.5 mL. The bead suspension was equally divided into 9 conical tubes of 15 mL (having each 1.5 mL of the bead suspension). Four of these tubes were used for experiments under blue light with LED panels (450 nm and intensity of 45 μmol/m²/s) while the other four were used for experiments in the dark (wrapped in aluminum foil). Experiments were performed in a dark room and red light was used occasionally for visualization purposes. The remaining tube was left as a control for His6-YFP-SH2 binding. Samples of 2.5 mL of bacterial clarified lysates containing either the monobody HA4 supernatant or each one of the chimeras were added to separate tubes of resin. The mixtures were then incubated for 45 minutes (at 4° C. and constant vertical rotation of 20 rpm) under blue light or dark conditions. […]

Test [6] deals with T1, His6-YFP-SH2. Description: pull-down on His6-YFP-SH2 cobalt beads, SDS-PAGE densitometry.
Description: as §1
Test [7] has as its target T1, His6-YFP-SH2. Nature of the test: pull-down on Co2+ agarose beads with His6-YFP-SH2, crude chimera lysate, light or dark, SDS-PAGE. This is another data set of the same source.
Description: as §1
In test [8] the target is T2, YFP-SH2 (human, UniProt P00519 112-232).
T2 construct: domain: SH2 domain; also called SH2-tagged YFP; EZ-L703
T2 sequence (looked up): T1 sequence (looked up)
Description: BLI; binder on Ni-NTA sensor, YFP-SH2 in solution; ambient light.

Test [9] deals with T2, YFP-SH2. Description: BLI (Octet RED96e); His-tagged binder on Ni-NTA sensor, YFP-SH2 in solution.
The target of test [10] is T2, YFP-SH2. Nature of the test: BLI; Kd of OptoMBV416L (light) against Kd of OptoMBC450V (dark).
Description: (§2) Ni-NTA sensors (ForteBio) were first equilibrated using Buffer A for 10 minutes prior the measurement. A volume of 200 μL of Buffer A or protein solutions (previously dialyzed with Buffer A when needed) was added to clear, 96-well plates. During the experimental run, the Ni-NTA sensors were first immersed in Buffer A to record the baseline. […] The sensors were then transferred back into Buffer A to remove unbound protein. […] To measure the unbinding rate constant (koff), the sensors were then moved to wells containing Buffer A to trigger dissociation of YFP-SH2. To measure binding kinetics of the light state, the lid of the Octet remained open during the measurement and a blue LED panel was held above the 96-well plate, maintaining constant blue illumination for the duration of the experiment. […] The raw binding and unbinding data were simultaneously fit to models of the binding and unbinding reactions:
Test [11] deals with T2, YFP-SH2. Description: BLI; binder on Ni-NTA sensor, YFP-SH2 in solution; lit conformation, 450 nm light.
Description: as §2
Test [12] addresses T2, YFP-SH2. Nature of the test: BLI; binder on Ni-NTA sensor, YFP-SH2 in solution; lit conformation, ambient light.
Description: as §2
For test [13], the target named is T2, YFP-SH2. Description: BLI; His-tagged binder on Ni-NTA sensor, YFP-SH2 in solution; light conformation; average of three measurements.
Description: as §2
Test [14] has as its target T2, YFP-SH2. Nature of the test: LCAC in batch, Talon resin; share of the resin-bound target eluted by blue light.
Description: (§3) After elution, beads were washed with imidazole to recover any remaining protein bound to the beads in order to estimate the capacity and yields of the resin.
(§4) The Resin was rotated in 50 mL conical tubes (covered with aluminum foil) at room temperature for 20 minutes and then poured in 20 mL BioRad glass Econo-Columns and washed with Buffer A (50 column volumes). […] The mixture was then vertically rotated gently for 45 minutes in 15 ml conical tubes.
In test [15] the target is T3, SH2-PDC1 (human; Saccharomyces cerevisiae).
T3 construct: No His tag; also called SH2-tagged Pdc1p; EZ-L886
T3 chain: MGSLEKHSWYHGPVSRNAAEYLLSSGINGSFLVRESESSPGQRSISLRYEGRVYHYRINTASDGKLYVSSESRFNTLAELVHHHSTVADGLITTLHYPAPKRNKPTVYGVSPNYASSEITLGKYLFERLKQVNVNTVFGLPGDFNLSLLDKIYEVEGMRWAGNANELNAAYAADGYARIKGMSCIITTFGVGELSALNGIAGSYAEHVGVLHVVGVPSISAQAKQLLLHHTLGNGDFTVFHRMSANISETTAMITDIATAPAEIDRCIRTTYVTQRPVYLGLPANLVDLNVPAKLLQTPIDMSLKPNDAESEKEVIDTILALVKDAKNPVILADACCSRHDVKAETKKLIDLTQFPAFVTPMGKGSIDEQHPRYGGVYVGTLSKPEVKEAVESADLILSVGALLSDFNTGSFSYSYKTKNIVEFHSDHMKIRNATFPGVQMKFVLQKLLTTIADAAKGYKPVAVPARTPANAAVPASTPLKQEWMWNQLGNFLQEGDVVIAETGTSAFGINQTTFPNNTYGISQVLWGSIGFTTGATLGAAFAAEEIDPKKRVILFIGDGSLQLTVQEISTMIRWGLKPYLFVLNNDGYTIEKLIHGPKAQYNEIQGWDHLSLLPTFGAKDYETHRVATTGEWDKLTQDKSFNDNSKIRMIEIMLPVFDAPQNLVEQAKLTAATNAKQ
The description is as above.
Description: as §3, §4

The target in test [16] is T2, YFP-SH2. Description: BLI; SUMO-tagged binder on Ni-NTA sensor, YFP-SH2 in solution; lit conformation, ambient light.
Description: as §2
The target in test [17] is T2, YFP-SH2. Nature of the test: LCAC in batch; His-tag bound OptoMB on Talon cobalt resin, target from crude E. coli lysate bound in the dark.
Description: as §3, §4
Test [18] concerns the target T3, SH2-PDC1. The test is described as above.
Description: as §3, §4
Test [19] has as its target T2, YFP-SH2. Nature of the test: BLI; binder on Ni-NTA sensor, YFP-SH2 in solution; dark conformation, 450 nm light.
Description: as §2
For test [20], the target named is T2, YFP-SH2. Description: BLI; binder on Ni-NTA sensor, YFP-SH2 in solution; dark conformation, ambient light.
Description: as §2
Test [21] concerns the target T2, YFP-SH2. Description: BLI; His-tagged binder on Ni-NTA sensor, YFP-SH2 in solution; dark conformation; average of three measurements.
Description: as §2

In the case of “LaM8 anti-mCherry nanobody (His-tagged, purified) (VHH)”, in test [1], the Kd worked out at 322 nM, the koff was found to be 0.02 s⁻¹ and the kon came to 75200 M⁻¹ s⁻¹. In [2], this molecule had a Kd of 230 nM, a koff of 0.018 s⁻¹ and a kon of 76000 M⁻¹ s⁻¹.
BFP-SSPB-SOScat: the change in cytosolic intensity between light and dark in [3] amounted to 60%. This molecule also registered a change in cytosolic intensity between light conditions in [4] of 60%.

B1: HA4-AsLOV2 chimera, NS47 insertion (designed binder)
chain: GSSVSSVPTKLEVVAATPTSLLISWDAPMSSSSVYYYRITYGETGGNGLERIEKNFVITDPRLPDNPIIFASDSFLQLTEYSREEILGRNCRFLQGPETDRATVRKIRDAIDNQTEVTVQLINYTKSGKKFWNLFHLQPMRDQKGDVQYFIGVQLDGTEHVRDAAEREGVMLIKKTAENIDEAAGSPVQEFTVPYSSSTATISGLSPGVDYTITVYAWGEDSAGYMFMYSPISINYRTC
Regarding B1, the binding result in test [5] was “no binding”.

B2: HA4-AsLOV2 chimera, SA84 insertion (designed binder)
chain: GSSVSSVPTKLEVVAATPTSLLISWDAPMSSSSVYYYRITYGETGGNSPVQEFTVPYSSSTATISGLSPGVDYTITVYAWGEDSGLERIEKNFVITDPRLPDNPIIFASDSFLQLTEYSREEILGRNCRFLQGPETDRATVRKIRDAIDNQTEVTVQLINYTKSGKKFWNLFHLQPMRDQKGDVQYFIGVQLDGTEHVRDAAEREGVMLIKKTAENIDEAAGAGYMFMYSPISINYRTC
As to B2, in [5], the binding result was “no binding”.

B3: HA4-AsLOV2 chimera, SS58 insertion, untagged (OptoMB) (designed binder)
chain: GSSVSSVPTKLEVVAATPTSLLISWDAPMSSSSVYYYRITYGETGGNSPVQEFTVPYSGLERIEKNFVITDPRLPDNPIIFASDSFLQLTEYSREEILGRNCRFLQGPETDRATVRKIRDAIDNQTEVTVQLINYTKSGKKFWNLFHLQPMRDQKGDVQYFIGVQLDGTEHVRDAAEREGVMLIKKTAENIDEAAGSSTATISGLSPGVDYTITVYAWGEDSAGYMFMYSPISINYRTC
notes: Used as crude E. coli extract in the pull-down screen; also called alphaSH2 OptoMonobody; EZ-L706
As to B3, the “band intensity, dark against light” value in [6] was around 2.1 fold.

B4: HA4-AsLOV2 chimera, SG65 insertion (designed binder)
chain: GSSVSSVPTKLEVVAATPTSLLISWDAPMSSSSVYYYRITYGETGGNSPVQEFTVPYSSSTATISGLERIEKNFVITDPRLPDNPIIFASDSFLQLTEYSREEILGRNCRFLQGPETDRATVRKIRDAIDNQTEVTVQLINYTKSGKKFWNLFHLQPMRDQKGDVQYFIGVQLDGTEHVRDAAEREGVMLIKKTAENIDEAAGGLSPGVDYTITVYAWGEDSAGYMFMYSPISINYRTC
As to B4, the binding result in [7] is reported as “no binding”.

B5: Monobody HA4 (His6-tagged, purified) (designed binder)
chain: HHHHHHSSGENLYFQGHASGSSVSSVPTKLEVVAATPTSLLISWDAPMSSSSVYYYRITYGETGGNSPVQEFTVPYSSSTATISGLSPGVDYTITVYAWGEDSAGYMFMYSPISINYRTC
In test [8], B5 returned a Kd of 280 nM, a koff of 0.0145 s⁻¹ and a kon of 51000 M⁻¹ s⁻¹. In [9], this molecule returned a Kd of 230 nM, a koff of 0.0145 s⁻¹ and a kon of 63100 M⁻¹ s⁻¹.

B6: OptoMBV416L (designed binder)
chain: HHHHHHGSGSGSDQEAKPSTEDLGDKKEGEYIKLKVIGQDSSEIHFKVKMTTHLKKLKESYCQRQGVPMNSLRFLFEGQRIADNHTPKELGMEEEDVIEVYQEQTGGHMASKGSSVSSVPTKLEVVAATPTSLLISWDAPMSSSSVYYYRITYGETGGNSPVQEFTVPYSGLERIEKNFLITDPRLPDNPIIFASDSFLQLTEYSREEILGRNCRFLQGPETDRATVRKIRDAIDNQTEVTVQLINYTKSGKKFWNLFHLQPMRDQKGDVQYFIGVQLDGTEHVRDAAEREGVMLIKKTAENIDEAAGSSTATISGLSPGVDYTITVYAWGEDSAGYMFMYSPISINYRTC
notes: T0006 lists the V416L plasmid with His6-SUMO; also called OptoMBV416L 1; OptoMBV416L 2
In the case of B6, the “fold change in binding affinity, light against dark” value in test [10] is around 330 fold. The Kd in [11] is 60000 nM and 42000 nM; in [12], 87000 nM; in test [13], 63000 nM. The koff in test [11] is 0.2 s⁻¹ and 0.24 s⁻¹; in test [12] it was 0.25 s⁻¹; in [13] it was 0.23 s⁻¹. The kon in [11] was 3300 M⁻¹ s⁻¹ and 5800 M⁻¹ s⁻¹; in test [12] it was 2900 M⁻¹ s⁻¹; in test [13] it was 4000 M⁻¹ s⁻¹.

B7: OptoMBV416I_G528A_N538E (His6-SUMO tagged) (designed binder)
chain: B6 chain with L180I, G292A, N302E
notes: also called OptoMBTriple
In the case of B7, the “Yield (% of recovery from the resin)” value in test [14] came to 29.8%. The “Yield (% of recovery from the resin)” value in [15] came out at 39%. In test [16], the dissociation constant Kd was above 100000 nM; the koff is 0.1 s⁻¹ and 0.13 s⁻¹; the kon is below 1000 M⁻¹ s⁻¹. Moreover, the “Resin Capacity” value in test [17] worked out at 4.5 mg/mL. Moreover, the “Resin Capacity” value in [18] is 5.24 mg/mL.

B8: OptoMBC450V (designed binder)
chain: HHHHHHSSGENLYFQGHASGSSVSSVPTKLEVVAATPTSLLISWDAPMSSSSVYYYRITYGETGGNSPVQEFTVPYSGLERIEKNFVITDPRLPDNPIIFASDSFLQLTEYSREEILGRNVRFLQGPETDRATVRKIRDAIDNQTEVTVQLINYTKSGKKFWNLFHLQPMRDQKGDVQYFIGVQLDGTEHVRDAAEREGVMLIKKTAENIDEAAGSSTATISGLSPGVDYTITVYAWGEDSAGYMFMYSPISINYRTC
notes: also called OptoMBC450V 1; OptoMBC450V 2
In test [19], B8 had a Kd of 270 nM, a koff of 0.013 s⁻¹ and a kon of 48000 M⁻¹ s⁻¹. For the same molecule, in [20], the koff was 0.006 s⁻¹ and 0.013 s⁻¹; the kon is 110000 M⁻¹ s⁻¹ and 56000 M⁻¹ s⁻¹. For the same molecule, in test [21], the affinity, expressed as Kd, was 190 nM; the koff was 0.01 s⁻¹; the kon was 71000 M⁻¹ s⁻¹.

What is called Kd is the concentration at which binding is half-saturated. A high value points to weaker binding. A word on the koff: it is a measure of how fast the partners let go of each other. Higher therefore signals a short-lived complex. By kon is commonly meant the rate constant with which the complex forms.
